Here are results for one variant from IntAct's records for PubMed 23010927.

Sequences and labels used below:
B1: Multidrug efflux pump accessory protein AcrZ (Escherichia coli (strain K12)), P0AAW9 (parent)
chain: MLELLKSLVFAVIMVPVVMAIILGLIYGLGEVFNIFSGVGKKDQPGQNH
partner: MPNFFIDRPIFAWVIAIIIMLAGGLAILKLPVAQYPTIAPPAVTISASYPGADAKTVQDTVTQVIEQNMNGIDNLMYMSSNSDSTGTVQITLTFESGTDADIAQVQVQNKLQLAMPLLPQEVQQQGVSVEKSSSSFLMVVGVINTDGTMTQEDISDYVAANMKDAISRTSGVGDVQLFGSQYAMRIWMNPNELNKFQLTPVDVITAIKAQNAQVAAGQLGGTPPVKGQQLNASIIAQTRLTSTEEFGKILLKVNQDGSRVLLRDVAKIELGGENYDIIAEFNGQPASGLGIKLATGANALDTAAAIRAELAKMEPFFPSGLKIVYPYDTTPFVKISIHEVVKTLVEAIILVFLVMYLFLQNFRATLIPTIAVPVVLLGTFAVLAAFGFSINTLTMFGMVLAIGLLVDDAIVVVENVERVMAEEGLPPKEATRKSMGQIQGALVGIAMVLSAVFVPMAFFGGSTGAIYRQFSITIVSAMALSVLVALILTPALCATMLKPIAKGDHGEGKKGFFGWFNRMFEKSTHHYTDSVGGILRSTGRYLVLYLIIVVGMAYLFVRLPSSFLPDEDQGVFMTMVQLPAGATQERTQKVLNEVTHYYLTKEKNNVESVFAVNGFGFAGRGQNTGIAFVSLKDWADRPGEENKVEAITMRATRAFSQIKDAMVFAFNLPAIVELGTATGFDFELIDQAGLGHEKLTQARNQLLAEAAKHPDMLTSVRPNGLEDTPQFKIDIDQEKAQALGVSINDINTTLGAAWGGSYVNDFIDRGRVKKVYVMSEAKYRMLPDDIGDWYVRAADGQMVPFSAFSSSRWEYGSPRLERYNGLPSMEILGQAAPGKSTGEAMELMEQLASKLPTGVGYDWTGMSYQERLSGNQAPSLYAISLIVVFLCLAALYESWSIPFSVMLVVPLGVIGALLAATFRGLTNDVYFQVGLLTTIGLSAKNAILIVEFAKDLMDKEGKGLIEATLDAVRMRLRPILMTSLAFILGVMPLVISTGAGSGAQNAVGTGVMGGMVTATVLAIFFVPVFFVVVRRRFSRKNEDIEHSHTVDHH

The variants in the experiment derive from B1. The settings on record: with acrb_ecoli acrB.
On to MLELLKSLVFAVIMVPVVMAIILGLIYGLREVFNIFSGVGKKDQPGQNH, for which the “effect of a mutation on the interaction” value is “disrupting interaction”.
